Data on nine variants can be found in the supplement of paper PMC7125110.

B1: glmS ribozyme (parent)
chain: AUAAAAGCGCCAGAACUACAGAAAUGUAGUUGACGAGGAGGAGGUUUAUCGAAUUUUCGGCGGAUGCCUCCAAA

Conditions in all cases: with glucosamine-6-phosphate
Variants of B1 are the subject of series [1]. The experiment in a line: kcat; higher = faster cleavage; RNA array. In a few lines: (§1)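 Tiles bearing barcoded ribozyme variants, transcribed in situ by E. coli RNA polymerase on sequenced MiSeq chips, were imaged over ~14 h at 37 °C using a hybridised Cy3 probe. Glucosamine-6-phosphate was supplied at 40 μM to 10 mM in HEPES/KCl/Mg(OAc)2 buffer. kobs came from one- or two-exponential decay fits to normalised per-tile medians, and weighted Michaelis–Menten fits then provided kcat and KM.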

Series [2] covers variants of B1. The experiment in a line: KM; higher = weaker cofactor use; RNA array. In a few lines:
as §1

In series [3] the parent is B1. The experiment in a line: self-cleavage kobs at 40 uM GlcN6P; higher = faster cleavage; RNA array. The gist of the method:
as §1

The variants in series [4] derive from B1. Put plainly: self-cleavage kobs at 160 uM GlcN6P; higher = faster cleavage; RNA array. In a few lines: as §1
Variants of B1 are the subject of series [5]. The experiment in a line: self-cleavage kobs at 640 uM GlcN6P; higher = faster cleavage; RNA array. In a few lines:
as §1

Series [6] covers variants of B1. Put plainly: self-cleavage kobs at 2500 uM GlcN6P; higher = faster cleavage; RNA array. The gist of the method:
as §1

The variants in series [7] derive from B1. Put plainly: self-cleavage kobs at 10000 uM GlcN6P; higher = faster cleavage; RNA array. The gist of the method: as §1

± gives the standard error. For part of these data: Variants at the floor of the assay were thinned out.

AUAAAAGCGCCAGAACUACAGAAAUGUAGUUGACGAGGUCGAGGUUUAUCGAAUUUUCGGCGGAUGCCUCCAAA [A39U G40C]: in the series with glucosamine-6-phosphate [1], the kcat came to 0.00382 ± 0.00081 s⁻¹. Besides, the Michaelis-Menten constant (KM) with glucosamine-6-phosphate [2] was determined as 1850 ± 560 µM. Moreover, the “self-cleavage kobs at 40 uM GlcN6P” value with glucosamine-6-phosphate [3] turned out to be 0.00011 ± 1.5e-05 s⁻¹. The “self-cleavage kobs at 160 uM GlcN6P” value with glucosamine-6-phosphate [4] is 0.000253 ± 4.7e-05 s⁻¹. The “self-cleavage kobs at 640 uM GlcN6P” value in the series with glucosamine-6-phosphate [5] was found to be 0.00089 ± 0.0001 s⁻¹. Further, the “self-cleavage kobs at 2500 uM GlcN6P” value with glucosamine-6-phosphate [6] was found to be 0.00244 ± 0.00039 s⁻¹. For the same variant, the “self-cleavage kobs at 10000 uM GlcN6P” value with glucosamine-6-phosphate [7] amounted to 0.00324 ± 0.00043 s⁻¹.

In the case of AUAAAAGCGCCGGAACUACAGAAAUGUAGUUUACGAGGAGGAGGUUUAUCGAAUUUUCGGCGGAUGCCUUCAAA [A12G G32U C70U], the kcat with glucosamine-6-phosphate [1] amounted to 0.00103 ± 0.00043 s⁻¹. For the same variant, the “self-cleavage kobs at 160 uM GlcN6P” value in the series with glucosamine-6-phosphate [4] turned out to be 0.000103 ± 1.9e-05 s⁻¹. For the same variant, the “self-cleavage kobs at 640 uM GlcN6P” value in the series with glucosamine-6-phosphate [5] is 0.000285 ± 6.9e-05 s⁻¹. The “self-cleavage kobs at 2500 uM GlcN6P” value with glucosamine-6-phosphate [6] is 0.000425 ± 9e-05 s⁻¹. Also, the “self-cleavage kobs at 10000 uM GlcN6P” value with glucosamine-6-phosphate [7] came to 0.00121 ± 0.00019 s⁻¹.

Take AUAAAAGCGCCAGAUCUACAGAAAUGUAGUUGACGAGGAGGAGGUUUUUCGAAUUUUCGGCGGAUGCCUCCAAA [A15U A48U]: in the series with glucosamine-6-phosphate [1], the kcat was 0.000133 ± 4.2e-05 s⁻¹. Besides, in the series with glucosamine-6-phosphate [4], the “self-cleavage kobs at 160 uM GlcN6P” value was less than 1e-05 s⁻¹. Besides, in the series with glucosamine-6-phosphate [7], the “self-cleavage kobs at 10000 uM GlcN6P” value stood at 4.87e-05 ± 9.2e-06 s⁻¹.

AUAAAAGCGCCAGAACUACAGAAAUGUAGUUGGCGAGGAGGAGGUUUAUCGAAUUUUCGGCGGAUGCCUGCAAA [A33G C70G]: in the series with glucosamine-6-phosphate [1], the kcat stood at 1.95e-05 ± 6.8e-06 s⁻¹.

Regarding AUAAAAGCGCCAGAACUACAGAAAUGUAGUUGACGAGGACGAGGUUUAUCGAAUCUUCGGCGGAUGCCUCCAAA [G40C U55C], the kcat with glucosamine-6-phosphate [1] stood at 0.000721 ± 0.00014 s⁻¹. In the series with glucosamine-6-phosphate [2], the KM came to 4590 ± 1400 µM. In addition, the “self-cleavage kobs at 160 uM GlcN6P” value in the series with glucosamine-6-phosphate [4] was determined as 2.05e-05 ± 5.9e-06 s⁻¹. Besides, in the series with glucosamine-6-phosphate [5], the “self-cleavage kobs at 640 uM GlcN6P” value worked out at 0.00012 ± 3.6e-05 s⁻¹. The “self-cleavage kobs at 2500 uM GlcN6P” value in the series with glucosamine-6-phosphate [6] worked out at 0.000287 ± 8.2e-05 s⁻¹. For the same variant, the “self-cleavage kobs at 10000 uM GlcN6P” value with glucosamine-6-phosphate [7] turned out to be 0.000483 ± 7.8e-05 s⁻¹.

Turning to AUAAAAGCGCCAGAACUACAGAAAUGUAGUUGACGAGGUGGAGGUUUAUCGAAUUUUCGACGGAUGCCUCCAAA [A39U G60A], the catalytic constant (kcat) with glucosamine-6-phosphate [1] amounted to 2.79e-05 ± 2e-06 s⁻¹. For the same variant, in the series with glucosamine-6-phosphate [2], the KM is 5820 ± 1100 µM. For the same variant, the “self-cleavage kobs at 160 uM GlcN6P” value with glucosamine-6-phosphate [4] is less than 1e-05 s⁻¹.

Consider AUAAAAGCGCCAGAACUACAGAAAUGUAGUUGACGAGGUGGAGGUUUAUCGAAUUUUCGGCGGAUGCUUCCAAA [A39U C68U], for which the kcat with glucosamine-6-phosphate [1] stood at 0.00901 ± 0.0018 s⁻¹. For the same variant, the KM in the series with glucosamine-6-phosphate [2] is 1340 ± 420 µM. In addition, the “self-cleavage kobs at 40 uM GlcN6P” value with glucosamine-6-phosphate [3] was found to be 0.000444 ± 8.6e-05 s⁻¹. For the same variant, the “self-cleavage kobs at 160 uM GlcN6P” value in the series with glucosamine-6-phosphate [4] was determined as 0.000829 ± 9e-05 s⁻¹. For the same variant, the “self-cleavage kobs at 640 uM GlcN6P” value with glucosamine-6-phosphate [5] turned out to be 0.00309 ± 0.00026 s⁻¹. In addition, the “self-cleavage kobs at 2500 uM GlcN6P” value with glucosamine-6-phosphate [6] was determined as 0.00636 ± 0.00063 s⁻¹. In addition, in the series with glucosamine-6-phosphate [7], the “self-cleavage kobs at 10000 uM GlcN6P” value came to 0.00694 ± 0.0011 s⁻¹.

In the case of AUAAAAGCGCAAGAUCUACAGAAAUGUAGUUGACGAGGAGGAGGUUUAUCGAAUUUUCGGCGGAUGCCUCCAAA [C11A A15U], in the series with glucosamine-6-phosphate [1], the catalytic constant (kcat) came out at 6.57e-05 ± 4.8e-06 s⁻¹. In addition, in the series with glucosamine-6-phosphate [2], the KM was found to be 1510 ± 380 µM. For the same variant, the “self-cleavage kobs at 2500 uM GlcN6P” value with glucosamine-6-phosphate [6] came to 3.75e-05 ± 1.7e-05 s⁻¹. Also, the “self-cleavage kobs at 10000 uM GlcN6P” value with glucosamine-6-phosphate [7] is 5.85e-05 ± 1.7e-05 s⁻¹.

As to AUAAAUGCGCCAGAACUACAGAAAUGUAGUUGACGAGGAGGAGGGUUAUCGAAUUUUCGGCGGAUGCCUCCAAA [A6U U45G], the kcat with glucosamine-6-phosphate [1] came to 0.000193 ± 3.9e-05 s⁻¹. The “self-cleavage kobs at 160 uM GlcN6P” value with glucosamine-6-phosphate [4] was less than 1e-05 s⁻¹. The “self-cleavage kobs at 10000 uM GlcN6P” value in the series with glucosamine-6-phosphate [7] came to 4.41e-05 ± 9.1e-06 s⁻¹.

In general, kcat refers to the maximal rate divided by the concentration of active sites. As a reminder, the KM is the concentration of substrate that gives half-maximal velocity.
